Measured values: patent US20230257472A1

B1: B7 phage display single-chain antibody (scFv, part only; not given: linker; VH end may be cut, part only)
scFv, part: QIQLVQSGPELKKPGETVKISCKTSGYTFTNYGMNWVRQAPGKGLKWMGWINTYTGEPTYADDFKGRFAFSLETSAGTAYLQINNLENEDTATYFCARGDSFTTEILRNWYFDVWGAGTTDIQMTQTPASLSASVGETVTITCGASENIYGALNWYQRKQGKSPQLLIYGATNLADGMSSRFSGSGSGRQYSLKISSLHPDDVATYYCQNVLSTPWTFGGGTKLEMK
B2: F4 phage display single-chain antibody (scFv, part only; not given: scFv linker, phage partner, tag, V domains shown, not shown: another chain or arm of the molecule; large carriers; small tags and cut ends)
VH: QVQLKQSGAELVKPGASVKMSCKASGDTFPRYNMHWLKQTPGQGLEWIGAIFPGNGETSYNQNFKGKATLTADKSSSTAYMQLNSLTSEDSAVYYCARNSYYDYAWFTYWGQGTLVTVSA
VL: DIVMTQSPASLDVSLGQRATISCRASKSVSSSGYSFMHWYQQKPGQPPKLLISLASNLESGVPARFSGSGSGTDFTLTIYPVEEEDAATYYCQHSREFPPTFGSGTKLEIK
B3: B1 phage display single-chain antibody (scFv, part only; not given: scFv linker, phage partner, tag, V domains shown, not shown: another chain or arm of the molecule; large carriers; small tags and cut ends)
VH: QVQMQQSGAELVKPGASVMMSCKASGYTFTTYNIHWIKQTPGQGLEWIGDIYPGNGDASYNQKFRDRATLTADRSSSTAYLQLSSLTSEDSAIYYCATFSRFDGWFAYWGQGTLVTVSA
VL: DIVMSQSPASLAVSLGQRATISCRASRSVSTSGYSYMHWYQQKPGQPPKLLIYLASNLESGVPARFSGSGSGTNFTLNIHPVEEEDAATYYCQHSRELPYTFGGGTKLEIK

Target: His-tagged CD70 protein extracellular domain (His-TNC-CD70) (human)
Test: phage ELISA, 2 ug/mL His-TNC-CD70 coated, anti-M13-HRP

Sequence of His-tagged CD70 protein extracellular domain (His-TNC-CD70) (human) (chain, as listed by the source limits assumed): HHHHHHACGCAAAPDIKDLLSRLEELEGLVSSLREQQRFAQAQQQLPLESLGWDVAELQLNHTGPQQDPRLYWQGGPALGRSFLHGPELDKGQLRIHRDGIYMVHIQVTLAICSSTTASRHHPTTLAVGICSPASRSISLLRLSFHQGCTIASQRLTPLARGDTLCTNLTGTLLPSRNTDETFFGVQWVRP

Row | Binder | Reading at OD450 nm of microplate reader [OD450]
1 | B1 | 1.97
2 | B2 | 1.09
3 | B3 | 1.16
